Laboratory results as given in paper PMC8208582, “Crosstalk between H2A variant-specific modifications impacts vital cell functions” (PLoS Genetics, 2021).
Values belong to the binder of their own block, whether it stands above or below them.

Molecular target: T1, recombinant H2B.9 (Arabidopsis, UniProt O23629 1-150)
T1 construct: histone H2B.9 (HTB9) of Arabidopsis; source: E. coli BL21 (DE3), purified (Ni-NTA under denaturing conditions, thrombin, SP sepharose)
Assay: SEC; freeze-dried histones mixed at a 1:1 molar ratio in 7 M guanidine hydrochloride, step-wise dialysed from 2 M to 0.1 M NaCl refolding buffer, Superdex200 in 0.1 M NaCl refolding buffer; peak fractions on SDS-PAGE
Conditions: both partners purified

T1 sequence (O23629 whole entry): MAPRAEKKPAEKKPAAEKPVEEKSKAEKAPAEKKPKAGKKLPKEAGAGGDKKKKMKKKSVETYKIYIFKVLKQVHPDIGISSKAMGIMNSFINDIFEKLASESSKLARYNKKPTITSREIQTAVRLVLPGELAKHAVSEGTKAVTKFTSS

- binding result: binds
B1: recombinant H2A.13 (natural protein, Arabidopsis, UniProt Q9LHQ5 1-132, looked up)
chain: MAGRGKTLGSGVAKKSTSRSSKAGLQFPVGRIARFLKNGKYATRVGAGAPVYLAAVLEYLAAEVLELAGNAARDNKKTRIVPRHIQLAVRNDEELSKLLGDVTIANGGVMPNIHSLLLPKKAGASKPSADED
notes: histone H2A.13 of Arabidopsis; source: E. coli BL21 (DE3), purified (Ni-NTA under denaturing conditions, thrombin, SP sepharose)

- binding result: binds
B2: recombinant H2A.W.7 (natural protein, Arabidopsis, UniProt Q94F49 1-150, looked up)
chain: MESSQATTKPTRGAGGRKGGDRKKSVSKSVKAGLQFPVGRIARYLKKGRYALRYGSGAPVYLAAVLEYLAAEVLELAGNAARDNKKNRINPRHLCLAIRNDEELGRLLHGVTIASGGVLPNINPVLLPKKSTASSSQAEKASATKSPKKA
notes: histone H2A.W.7 of Arabidopsis; source: E. coli BL21 (DE3), purified (Ni-NTA under denaturing conditions, thrombin, SP sepharose)

- binding result: binds
B3: recombinant H2A.W.6 (natural protein, Arabidopsis, UniProt Q9FJE8 1-150, looked up)
chain: MESTGKVKKAFGGRKPPGAPKTKSVSKSMKAGLQFPVGRITRFLKKGRYAQRLGGGAPVYMAAVLEYLAAEVLELAGNAARDNKKSRIIPRHLLLAIRNDEELGKLLSGVTIAHGGVLPNINSVLLPKKSATKPAEEKATKSPVKSPKKA
notes: histone H2A.W.6 of Arabidopsis; source: E. coli BL21 (DE3), purified (Ni-NTA under denaturing conditions, thrombin, SP sepharose)
